Source: article PMC2566886

Biological target: human Nudt16 protein (human) (UniProt Q96DE0)
Test: cross-linking

Sequence of human Nudt16 protein (Q96DE0 whole entry): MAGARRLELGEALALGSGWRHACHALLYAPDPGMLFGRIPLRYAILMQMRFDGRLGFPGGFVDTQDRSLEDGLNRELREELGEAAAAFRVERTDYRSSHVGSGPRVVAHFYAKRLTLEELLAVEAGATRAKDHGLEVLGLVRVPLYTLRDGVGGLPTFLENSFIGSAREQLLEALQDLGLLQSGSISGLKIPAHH

“human Nudt16 protein (from UniProt Q96DE0 1-195) (enzyme)” showed a stoichiometry N of 2.
